Measured values taken from the supplement of paper PMC12764529.
± gives the half width of the 95% confidence interval.

Assay: folding stability dG unfold (combined trypsin and chymotrypsin); higher = more stable
Description: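 Folding stability of de novo designed mini-proteins (<80 aa, no Cys; designed by TrROS, TrMRF, ProteinMPNN and the joint model) was measured by cDNA display proteolysis with trypsin and chymotrypsin. Each protease was used at 11 concentrations in a threefold dilution series plus a no-protease condition. K50 was inferred by Bayesian fitting of sequencing counts, and dG unfold was derived against a sequence-predicted unfolded-state K50 (Tsuboyama et al. method). Sequences shown include variable-length N-terminal GS-type padding (SAGGSAGG...) inside a display construct carrying a PA tag. Rows were kept only if the AF2 dimer inter-PAE was >15, to exclude likely homo-oligomers.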

Sequence	folding stability dG unfold [kcal/mol]
EPNYLVQIEIEPRMYQKDEDGKPLKPQPMKQPFFGPADDPEQVKDNLRDNFGPEVEIDEVMPLEDINEGQFS [r1_493_TrROS]	< -1
NWVVWAKLTNPEEGERKTYEVPVPPGEEPTEEEILDQAKDMLGRPKEDLRKNVEIEPYPENGWAEIEIRIRS [r1_285_TrROS]	< -1
PDDPEEQREQMPPIPPEWAEELARKFAEKLGDEEVTEVEVDDITPNGYIEVEIENPDGGEVKIEIPMDDIMS [r1_435_TrROS]	< -1
SAAEWLKEEGLKVKDVEVTKPRENPNGKREMEYRIKVRLPNKKVEVPIRMPSDSPETALNMAHNILRELSAG [r14_726_TrROS]	< -1
SAELVLASVEKKGDEVIAVTAFPDGLFVKVKTKDGKIFAAPLPAENIGPQVEALKKAFPGVEVEPFLAESAG [r14_528_TrMRF]	< -1
SAGGANAKDVKRDGNNIQITFDGQILFKIQPPKPVPPVRVRHPDGKEHHAPLEDLKKENPDNWEIEPPSAGG [r13_802_TrROS]	< -1
SAGGASVPVEPRLDASGRERVRATLEIRPTLPNGTRTSRAVPVEFASRAELRAFIAARAPTADAVLLSAGGS [r16_652_JUSTAS]	< -1
SAGGDDFRVERFHPGEPREPREIDGDADDLLEELPPNDSYVHIEFKDDGGKKRIQMDTPEDLKNFIRDSAGG [r13_299_TrROS]	< -1
SAGGDKKKKEVEFRFPGMPFRVSIQVDPDEGKIPIEIYNPDNGQSLDDLKSNPAMQQMVREAANALKSAGGS [r16_96_TrROS]	< -1
SAGGDPDWKPIEFNLQRTVKPGDPEQIEEKAREFFEMFGIKSVTDVERERNPEGQQTVQASVKIRFPDSAGG [r13_222_TrROS]	< -1
SAGGDWIPFRIKQYDPKDGKPKREWPIQYNPEDGMMQIRPPDGKKHEFPMPMQEILENLPPGFEIEPSAGGS [r16_543_TrROS]	< -1
SAGGEKVPLKIRDPDNGNPHEFDKIESIDSVEMQKPPDNRQQYSIRFPGDGRPIMIDDPEDIEEALKSAGGS [r8_206_TrROS]	< -1
SAGGGMNEPVPKVTVTTTSVSVEPPPDLPGIAKVYTPTVITTDDEAVAEAIAEEIAAQPDVEYEDTGASAGG [r13_606_JUSTAS]	< -1
SAGGGPEVVETVETPATETEVSRLPNGELLVTTTTQVTTFVRVGDELRRERVETVTTTEIVSPEELGSAGGS [r16_109_JUSTAS]	< -1
SAGGGSIEDSNLSEEEIKEILSKLPEPVTVTVKRKEVKKVTYFENGKVKEEKIVEKEKTEVYYFPPKKSAGG [r13_632_JUSTAS]	< -1
SAGGGSKIIEVPVIVEPDEDLGKVAEEIAKKIFPENEKVIVKVEKFENSYRIEIFNPEDGKPIIEGEGSAGG [r13_724_TrMRF]	< -1
SAGGGVSYSFSSSGSGSTVTIYIPGSGKTLKRKVNPNDTITDIPSSAKPYKVVKEVNDEKPVEEELGSAGGS [r8_487_JUSTAS]	-0.855 ± 0.72
SAGGIMFDSPEEAEELADNGRIKPVNRGKQKHKDNGKEREHEMYMVKIKDPEDNKPVQVMIPADQIRSAGGS [r16_271_TrROS]	< -1
SAGGKIGQEVDPGEPITIPIVKRDGDNPKKEKINFRLPPGMRIRPKDDNIMIRFPGNGQEQTIPLKDLSAGG [r13_275_TrROS]	< -1

Sequence	folding stability dG unfold [kcal/mol]
SAGGKNPEENDPEYQKPPKIPSRTIPFPAEQALAWAKELPGFDNIMVEAGGKWVEIDLDDGKIEPYGSAGGS [r16_214_TrROS]	< -1
SAGGKPPKIKIKVEHEPYPGNGRYYMEVELEDPDDGKPIEIPFRGDSPEEAEENAKEIAREIAKELKSAGGS [r8_480_TrROS]	< -1
SAGGLPSPDAVVEEESLELSFESSSEVVVTKKKTTKKVLPNGKVETETEEEEEVVKATKEEIEKLKKESAGG [r13_544_JUSTAS]	< -1
SAGGLTITVTPSVSENEVVVPGTGKPRFPEPRETYTVTVTPAPDVSLEEVAAEIREKFPGRGYTLTPSAGGS [r8_30_JUSTAS]	< -1
SAGGMDDVIRKALEEATPPLEVKEELILTTEPTPRGTVITKTTRPIIKSPEPGTFVPEPVEVVPAALLSAGG [r19_11_JUSTAS]	< -1
SAGGMDPAEAREIAKEIMKKFEENGRPYYAKITIRPDPKIQDIDIMPPGEPLEPRADPGQRTIMFRFPSAGG [r13_693_TrROS]	< -1
SAGGMELKVVTLEATSGRREDAGLVPAALEEGARELALAHPELRILGADMEVEPLGEEYVARIPLVVGSAGG [r13_305_TrMRF]	< -1
SAGGMITTEREVEVPPDELDEVIERLKAEVAAQPLEPAEDIKILEIEEKEEKAVIKYKVTAKVEGEKLLSAG [r5_575_JUSTAS]	< -1
SAGGMKAEIVNPNLSPEELKELILKAPEAKDVDIEVKKTSAKGAVSAKITTKSEKEAETIKKAVEEAVSAGG [r13_580_JUSTAS]	< -1
SAGGMLRTVKTEKYSDGTVVEPVADAAGNVTYTIVKKRKKVFDGDKVYYSEPVTIFKNGVKVEEKNISSAGG [r13_1007_JUSTAS]	< -1
SAGGMNMYLRVEQYRKKPNGEPEKRELSIPFPPNEPVEEIADELQKDNPYIKVEIYSPGTGKQQTITISAGG [r13_663_TrROS]	< -1
SAGGMPPSFVVEEEKTVEGTSTVTLRKITNPSSSEDMLSEIVTPPDGSVTLILKKDNIIEVIPSSELSAGGS [r16_49_JUSTAS]	< -1
SAGGMPVVTPTTSTEPLPGGRAATVTTYTPPDGLVRQEVTLPPERRLFRLIDPATGEVVEKEEAELESAGGS [r16_735_JUSTAS]	< -1
SAGGMRIPLKQIKDVNHQPPPGNGYPMVTVKVRDGGKPHTHTIPNNMNWEEAKRMVEEALDEGPIEIESAGG [r13_225_TrROS]	< -1
SAGGMSPDATITENLVTDSEEEALAKLLADPSVAEVKPLGVKPDKTKEGKPVIIVPVELRIPADGVRLSAGG [r19_221_JUSTAS]	< -1
SAGGMTIDSPEEAVQAIEDNPDKPLTLLVPTDPSTGSVPEEVVQAFAEPGFPISRDPAGYWTITYPPSAGGS [r16_335_JUSTAS]	< -1
SAGGMTSTFRFSDSRGRLSVEKITPETGKVTVVEQGPSSPRRSTLNASPEEAFQQLKDANDFPASRLESAGG [r13_141_JUSTAS]	< -1
SAGGMVLSDVLPDGTVKPVSEEKIKEIVEKIEKEINAKIEVKIEKKWEGDKWVTTIPVTLIGLSPKLISAGG [r13_790_JUSTAS]	< -1
SAGGMVVEEEPTKTVVEEVVPLPGGSPVRRITEEVLLPDGSVASRTTVFRPPGEREEETSLDPVPPEASAGG [r13_21_JUSTAS]	< -1

Sequence	folding stability dG unfold [kcal/mol]
SAGGNKTREREIPIPPGDSPDQAVDRVLEELEKHPDNNNVNINFRHPNGMPIKIRVTPNGKITEVEPYSAGG [r13_690_TrROS]	< -1
SAGGPGVEIVEVDPDGTLRVRAYDPATREPIAEAEIRIGALPVPPPVPGVPVLLADGELREVELPAALSAGG [r13_9_TrMRF]	< -1
SAGGPGYWRIKIYPKDTGKPHEFPIPLDQIRKVDPKNNKIEISFPNGPTIKIPDPEDIKAVQIEPWPSAGGS [r8_111_TrROS]	< -1
SAGGPKIEVDVKHQRTPDGMYRMRVTAVVPGNGRKIKITMPMPPDDPSPMPKMAKSIAKELANDPGLKSAGG [r13_968_TrROS]	< -1
SAGGPKIHIDRGPDYIRVKINGPDGKPIAPSTIPYEDPDNGEEEEVKIPIEELAQESGFPIEIEPYDSAGGS [r16_778_TrROS]	< -1
SAGGPMPPGQPVNIHIEIENPNGNERTIPVPGPVGDPDWFKEIAEKLKEEGWKIKKIHPGNGVIEIKSAGGS [r8_497_TrROS]	< -1
SAGGPMVTWRIKFPGKKIEVMWNPDQMNVNIYDPDKPKEVPIPMPPGEPPTADDILDELKKDGFKIEPSAGG [r13_687_TrROS]	< -1
SAGGPMWQVRLRDPDGKKRTINIQQTNGNMYVRIQDKDGEPVKEHPVDSAEEALDKLEDHGYKVEVYPSAGG [r13_315_TrROS]	< -1
SAGGPPIMLRIKHPGPDQREKIKEIAQDYPIEPVNPTPGEHEFRFNGPEQVNRLQDIAEKNGWKIEISAGGS [r16_88_TrROS]	< -1
SAGGPPKWKEVEFRMPPEDLKPDDIVDELQDDGIEIYNGDKPIDPGKSVDDLMQDNPNMPFTIKVWDSAGGS [r8_38_TrROS]	< -1
SAGGPSMSLSTRTVTLPVDPDTTEEEIKEALNREVKLPSPSTAIETPVEVEISPGPPVATVTLQVKILSSAG [r5_939_JUSTAS]	< -1
SAGGQKITIDNVTPGMIRIRVPNGNEFEFPEIQKELQEHGNNQPPTADQIAEWLRKRNFPIKDIEISDSAGG [r13_610_TrROS]	< -1
SAGGRPYKVKIKNPGSGKPYEMPIVDVHESDDNFYIMIQNPNGKNREAPLNNIDKAEVDEEGGTITLPSAGG [r13_211_TrROS]	< -1
SAGGSADMPMLPIEEIIDQLKEAKEANPNKKRTIEIPYPDGMPMQIEIDNDGKTKIEHPDGQWITISAGGSA [r15_73_TrROS]	< -1
SAGGSAGGIKPGQRVRVKLEQWSPNGEPQKHTFPIKNIPPGFKPGQELTFPGPGHKWRIDEITRSAGGSAGG [r6_561_TrROS]	< -1
SAGGSAGGMELVTLPVVTTEEVPVPPVTKTLPNGTRETVPQPPVTVVRETVLLTTPEEAAALLRSAGGSAGG [r6_120_JUSTAS]	< -1
SAGGSAGGMKKEKFGDSIRYTFPVDPNTSVEEIKKEIEKIPGVKDISKVKITPSPSNKLLVYVKSAGGSAGG [r6_516_JUSTAS]	< -1
SAGGSAGGMKVTFDDGVEETLNLTEEEAKAWAESRPDRKMTRIEKEPPEKLSPENLTPEAIKLKSAGGSAGG [r6_881_JUSTAS]	< -1
SAGGSAGGMPESAPPVPLPTSTVPLSEARAAGIEVPPGSERVIRTPSGVTYRISSATGTVTVVGSAGGSAGG [r6_275_JUSTAS]	< -1
